Assay results published in publication PMC2793008.

Biological target: integrin alpha2beta1 (human (endogenous in cord blood derived megakaryocytes)) (UniProt P17301)
UniProt P17301, sequence (P17301 30-1181, chain 1 of 2): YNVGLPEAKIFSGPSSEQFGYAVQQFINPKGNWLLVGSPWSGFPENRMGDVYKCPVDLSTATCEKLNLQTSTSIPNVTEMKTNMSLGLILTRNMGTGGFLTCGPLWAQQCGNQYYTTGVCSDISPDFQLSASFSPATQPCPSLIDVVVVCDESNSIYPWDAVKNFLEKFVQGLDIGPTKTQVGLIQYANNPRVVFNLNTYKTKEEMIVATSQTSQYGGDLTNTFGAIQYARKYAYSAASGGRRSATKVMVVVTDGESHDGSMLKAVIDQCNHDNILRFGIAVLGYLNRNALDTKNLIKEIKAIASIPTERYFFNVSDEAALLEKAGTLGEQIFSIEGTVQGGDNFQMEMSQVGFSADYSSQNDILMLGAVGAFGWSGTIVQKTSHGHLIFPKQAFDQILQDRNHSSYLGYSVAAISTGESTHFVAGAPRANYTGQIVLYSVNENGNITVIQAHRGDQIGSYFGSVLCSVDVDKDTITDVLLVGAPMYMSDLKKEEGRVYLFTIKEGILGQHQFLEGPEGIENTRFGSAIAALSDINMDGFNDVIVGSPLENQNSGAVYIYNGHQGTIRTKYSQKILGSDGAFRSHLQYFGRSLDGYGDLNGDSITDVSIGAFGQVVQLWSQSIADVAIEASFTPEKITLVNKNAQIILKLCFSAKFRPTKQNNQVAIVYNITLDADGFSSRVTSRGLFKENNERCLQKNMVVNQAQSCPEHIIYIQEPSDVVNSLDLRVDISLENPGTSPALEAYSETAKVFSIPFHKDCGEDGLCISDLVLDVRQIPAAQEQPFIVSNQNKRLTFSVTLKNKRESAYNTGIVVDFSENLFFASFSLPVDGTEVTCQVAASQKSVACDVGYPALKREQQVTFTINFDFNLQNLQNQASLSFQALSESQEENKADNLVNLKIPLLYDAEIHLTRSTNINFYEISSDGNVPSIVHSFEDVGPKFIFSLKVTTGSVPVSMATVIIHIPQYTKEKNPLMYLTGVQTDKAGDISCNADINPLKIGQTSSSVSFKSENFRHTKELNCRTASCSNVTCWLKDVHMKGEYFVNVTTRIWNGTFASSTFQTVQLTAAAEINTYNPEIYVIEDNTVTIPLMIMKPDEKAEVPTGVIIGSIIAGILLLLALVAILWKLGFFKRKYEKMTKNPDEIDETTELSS
UniProt P17301, sequence (P05556 21-798, chain 2 of 2, further chain): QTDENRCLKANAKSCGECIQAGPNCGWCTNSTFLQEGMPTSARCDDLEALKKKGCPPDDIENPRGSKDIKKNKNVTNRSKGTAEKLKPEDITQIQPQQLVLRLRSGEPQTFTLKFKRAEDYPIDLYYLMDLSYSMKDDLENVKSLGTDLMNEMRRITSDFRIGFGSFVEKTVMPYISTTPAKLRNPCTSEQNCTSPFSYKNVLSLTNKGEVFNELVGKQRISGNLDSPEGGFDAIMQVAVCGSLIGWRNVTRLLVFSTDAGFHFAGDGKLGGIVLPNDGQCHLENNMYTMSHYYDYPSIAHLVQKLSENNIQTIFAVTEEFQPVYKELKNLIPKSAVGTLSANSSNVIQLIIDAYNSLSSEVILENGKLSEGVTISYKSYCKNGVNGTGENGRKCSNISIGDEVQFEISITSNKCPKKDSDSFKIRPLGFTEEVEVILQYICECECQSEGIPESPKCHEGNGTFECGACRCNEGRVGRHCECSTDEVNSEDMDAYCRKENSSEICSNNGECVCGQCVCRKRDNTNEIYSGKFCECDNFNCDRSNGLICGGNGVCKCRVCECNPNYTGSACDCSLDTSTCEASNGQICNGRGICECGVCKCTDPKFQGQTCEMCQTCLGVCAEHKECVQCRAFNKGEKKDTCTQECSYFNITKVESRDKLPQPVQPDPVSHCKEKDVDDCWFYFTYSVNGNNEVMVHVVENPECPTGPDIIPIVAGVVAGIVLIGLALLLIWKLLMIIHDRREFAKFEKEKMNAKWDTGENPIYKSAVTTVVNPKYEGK

- adhesion of mature megakaryocytes to hOSTs (day 18) after pre-incubation with 30 µg/mL anti-integrin alpha2 monoclonal antibody P1E6, against unrelated IgG: 30%
Substance: type I collagen (from UniProt P02452 162-1218; P08123 80-1119) (complex)
